Data from publication PMC12314560.

Biological target: Angiotensin-converting enzyme 2 (recombinant human ACE2 protein-mFc Tag) (human) (UniProt Q9BYF1)
Test: BLI

Chain of UniProt Q9BYF1 (Q9BYF1 18-740): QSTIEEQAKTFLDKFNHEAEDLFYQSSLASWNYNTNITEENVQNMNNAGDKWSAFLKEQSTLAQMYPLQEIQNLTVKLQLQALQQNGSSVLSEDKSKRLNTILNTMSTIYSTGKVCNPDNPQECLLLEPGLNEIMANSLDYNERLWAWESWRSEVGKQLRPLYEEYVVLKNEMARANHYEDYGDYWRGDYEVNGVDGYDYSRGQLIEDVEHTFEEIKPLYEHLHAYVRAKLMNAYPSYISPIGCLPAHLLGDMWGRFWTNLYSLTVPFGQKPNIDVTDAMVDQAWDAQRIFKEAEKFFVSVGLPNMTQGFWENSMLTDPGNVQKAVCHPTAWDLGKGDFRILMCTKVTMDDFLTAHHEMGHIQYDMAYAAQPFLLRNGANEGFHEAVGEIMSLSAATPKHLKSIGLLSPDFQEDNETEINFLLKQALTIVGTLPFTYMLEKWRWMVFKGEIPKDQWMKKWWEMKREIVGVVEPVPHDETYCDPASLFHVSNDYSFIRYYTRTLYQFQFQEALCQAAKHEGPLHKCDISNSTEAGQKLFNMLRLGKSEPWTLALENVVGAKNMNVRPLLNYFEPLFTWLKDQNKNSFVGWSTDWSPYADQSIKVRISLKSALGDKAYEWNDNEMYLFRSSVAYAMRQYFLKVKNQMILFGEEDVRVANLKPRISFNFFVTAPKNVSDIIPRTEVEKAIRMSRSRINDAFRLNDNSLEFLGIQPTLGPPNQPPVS

Beta S1 protein (domain or fragment)
Kd: 0.472 nM
